Experimental findings from patent publication US20230250190A1 (published 2023) are described below.

Common to all, as to assay: glycopeptide array
In one assay the target is T1, T4 (Tn-MUC1) (PAPGSTAPPAHGVT(α-GalNAc)SAPDTRPAPG-OH).
T1 peptide: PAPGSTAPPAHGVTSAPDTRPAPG

A further assay has as its target T2, T9 (Tn-MUC1) (PAPGSTAPPAHGVT(α-GalNAc)S(α-GalNAc)APDTRPAPG-OH).
T2 peptide: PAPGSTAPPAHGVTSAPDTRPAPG

A further assay concerns the target T3, T11 (Tn-MUC1) (PAPGSTAPPAHGVT(α-GalNAc)SAPDT(α-GalNAc)RPAPG-OH).
T3 peptide: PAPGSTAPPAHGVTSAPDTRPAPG

The next assay has as its target T4, T8 (Tn-MUC1) (PAPGST(α-GalNAc)APPAHGVTSAPDT(α-GalNAc)RPAPG-OH).
T4 peptide: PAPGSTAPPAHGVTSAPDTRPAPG

Changes are numbered by the printed parent chain.

B1: 126 (antibody, V domains shown)
VH: QVQLVQSGAEVKKPGASVKVSCKASGYTFNRYYLHWVRQAPGQGLEWMGVINPYDGSTNYAQKFRGRVTMTRDTSTNTVYMELSSLRSEDTAVYFCARDAMEGDSYFDNWGQGTTVTVSS
As for B1, the EC50 (in general, the concentration needed to bring the measured effect to its halfway point) with T4 (Tn-MUC1) was found to be 0.143 µg/mL; with T9 (Tn-MUC1), 0.153 µg/mL; with T11 (Tn-MUC1), 0.195 µg/mL; in the assay with T8 (Tn-MUC1), 0.168 µg/mL.

B2: 122 (antibody, V domains shown)
VH: B1 VH with Q1E, V5L, Q6E, L34I, N59D, G66D, V68I, E82D, Q112R, T115L
As for B2, the concentration giving a half-maximal response (EC50) with T4 (Tn-MUC1) worked out at 0.108 µg/mL; in the assay with T9 (Tn-MUC1), 0.1 µg/mL; with T11 (Tn-MUC1) it was 0.133 µg/mL; with T8 (Tn-MUC1), 0.121 µg/mL.

B3: 166 (antibody, V domains shown)
VH: B1 VH with Q6E, L34I, Y54S, V68I, T78I, E102G, T115L
For B3, the EC50 with T4 (Tn-MUC1) came to 0.108 µg/mL; in the assay with T9 (Tn-MUC1) it was 0.095 µg/mL; in the assay with T11 (Tn-MUC1), 1.68 µg/mL; in the assay with T8 (Tn-MUC1), 1.85 µg/mL.

B4: 186 (antibody, V domains shown)
VH: B1 VH with L34I, V68I, E82D, F107L, Q112R, T115L
As for B4, the EC50 came out at 0.118 µg/mL with T4 (Tn-MUC1), 0.132 µg/mL in the assay with T9 (Tn-MUC1), 0.213 µg/mL in the assay with T11 (Tn-MUC1) and 0.203 µg/mL in the assay with T8 (Tn-MUC1).

B5: 66 (antibody, V domains shown)
VH: QVQLVQSGAEVKKPGASVRVSCKASGYTFTNYYIHWVRQAPGHGLTWMGVINPFDSSTDYAQKFQGRVTMTRDTSTSTVYMDLSSLRSEDTAVYYCARDYMRGHVVFDYWGQGTLVTVSS
With B5, the EC50 with T4 (Tn-MUC1) worked out at 0.11 µg/mL; with T9 (Tn-MUC1) it was 0.123 µg/mL; in the assay with T11 (Tn-MUC1), 0.138 µg/mL; with T8 (Tn-MUC1), 0.123 µg/mL.

B6: 94 (antibody, V domains shown)
VH: B5 VH with A16S, R19K, T30N, N31S, H43Q, S56G, H104Y, Q112R
B6: the EC50 turned out to be 0.034 µg/mL with T4 (Tn-MUC1), 0.033 µg/mL with T9 (Tn-MUC1), 0.04 µg/mL with T11 (Tn-MUC1) and 0.033 µg/mL in the assay with T8 (Tn-MUC1).

B7: 134 (antibody, V domains shown)
VH: QVQLVQSGAEVKKPGASVEVSCKASGYTFINYYIHWVRQAPGQGLEWMGVINPFDGSTNYAQKFQGRVTVTRDTSTSTVFLDLSSLRPEDTAVYYCARDSMIGYVLFDYWGQGTLVTVSS
With B7, the EC50 was 0.11 µg/mL in the assay with T4 (Tn-MUC1), 0.095 µg/mL in the assay with T9 (Tn-MUC1), 0.131 µg/mL with T11 (Tn-MUC1) and 0.113 µg/mL with T8 (Tn-MUC1).

B8: 154 (antibody, V domains shown)
VH: QVQLVQSGAEVKKSGASVKVSCKASGYIFTSYYIQWVRQAPGQGLEWMGVINPFDGSTDYAQKFQGRVTVTRDTSTTTVFMELSSLRSEDTAVYYCARDNMLGYVLFDYWGQGTLVTVSS
As for B8, the EC50 with T4 (Tn-MUC1) was 0.13 µg/mL; with T9 (Tn-MUC1) it was 0.106 µg/mL; with T11 (Tn-MUC1), 0.196 µg/mL; with T8 (Tn-MUC1) it was 0.162 µg/mL.

B9: 158 (antibody, V domains shown)
VH: B8 VH with S14P, I28T, I34M, Q35H, D59N, S75A, E82D
As to B9, the concentration giving a half-maximal response (EC50) turned out to be 0.095 µg/mL with T4 (Tn-MUC1), 0.088 µg/mL with T9 (Tn-MUC1), 0.235 µg/mL with T11 (Tn-MUC1) and 0.242 µg/mL in the assay with T8 (Tn-MUC1).

B10: 17 (antibody, V domains shown)
VH: QVQLVQSGAEVKKPGASVRVSCKASGYPFINYYIQWVRQAPGQGLEWMGVVNPYDGSTNYAQKFQGRVSITRDASTSTVFMELNSLRSEDTAVYYCARDSMLGHVIFDFWGQGTLVTVSS
As for B10, the EC50 was 0.098 µg/mL in the assay with T4 (Tn-MUC1), 0.102 µg/mL with T9 (Tn-MUC1), 0.126 µg/mL with T11 (Tn-MUC1) and 0.104 µg/mL with T8 (Tn-MUC1).

B11: 142 (antibody, V domains shown)
VH: B10 VH with R19M, V20L, P28I, I30T, N31S, A74T
For the molecule B11, the EC50 with T4 (Tn-MUC1) was found to be 0.089 µg/mL; with T9 (Tn-MUC1) it was 0.091 µg/mL; with T11 (Tn-MUC1) it was 0.126 µg/mL; in the assay with T8 (Tn-MUC1), 0.108 µg/mL.

B12: 130 (antibody, V domains shown)
VH: QVQLVQSGAEVKKPGASVRVSCKASGYTFINYYLQWVRQAPGQGLEWMGTINPFDGSTHYAQKFQGRVTLTRDTSTSTVYMELNSLRSDDTAVYYCARDYMIGYVLFDYWGQGTLVTVSS
Consider B12, for which the concentration for a half-maximal effect (EC50) was 0.125 µg/mL with T4 (Tn-MUC1), 0.117 µg/mL with T9 (Tn-MUC1), 0.14 µg/mL with T11 (Tn-MUC1) and 0.116 µg/mL in the assay with T8 (Tn-MUC1).

B13: 21 (antibody, V domains shown)
VH: QVQLVQSGAEVRKPGASVKFSCKASGYSFTHYYVHWVRQAPGQGLEWMGVINPFDSSTNYARKFQGRVTMTRDTSTTTVYMDLSSLRSEDTAVYFCARDAMEGDSYFDYWGQGTLVTVSS
With B13, the EC50 in the assay with T4 (Tn-MUC1) is 0.051 µg/mL; with T9 (Tn-MUC1), 0.058 µg/mL; with T11 (Tn-MUC1) it was 0.071 µg/mL; in the assay with T8 (Tn-MUC1) it was 0.061 µg/mL.

B14: 202 (antibody, V domains shown)
VH: QVQLVQSGAEVKNPGASVKFSCKASGYTFINYYLQWLRQAPGQGLEWMGTINPFDGSTSYAQNFQGRVTMTRDTSSTTVYMELNSLKSEDTAVYYCARDSMIGYVLFDSWGQGTLVTVSS
B14: the EC50 with T4 (Tn-MUC1) came out at 0.104 µg/mL; with T9 (Tn-MUC1) it was 0.119 µg/mL; with T11 (Tn-MUC1), 0.142 µg/mL; in the assay with T8 (Tn-MUC1), 0.125 µg/mL.

B15: 70 (antibody, V domains shown)
VH: QVQLVQSGAEVKKPGASVKVSCKASGYAFPNYYIHWVRQAPGQGLEWMGVINPYGGSTNYAQKFQGRVTMTRGTSTSTVYLELSSLRSEDTAVYYCARDAMKGDSFFDYWGQGTLVTVSS
On to B15, for which the 50% effective concentration (EC50) with T4 (Tn-MUC1) turned out to be 0.127 µg/mL; in the assay with T9 (Tn-MUC1), 0.151 µg/mL; with T11 (Tn-MUC1), 0.161 µg/mL; with T8 (Tn-MUC1), 0.149 µg/mL.

B16: 182 (antibody, V domains shown)
VH: QVQLVQSGAEVKKPGASVKVSCKASGYSFTYSYIQWVRLAPGRGLEWMGVINPYDGSTDYAQKFQGRVTLTRDTSTTTVYMELSSLTSEDTAVYYCARDFMIGYVVFDYWGQGTLVTVSS
Regarding B16, the EC50 in the assay with T4 (Tn-MUC1) was determined as 0.093 µg/mL; with T9 (Tn-MUC1) it was 0.085 µg/mL; with T11 (Tn-MUC1), 0.11 µg/mL; in the assay with T8 (Tn-MUC1), 0.098 µg/mL.

B17: 118 (antibody, V domains shown)
VH: QVQLVQSGAEVKKPGASVKVSCKASGYTFTNYYIQWVRQAPGQGLEWMGVINPYDGSTNYAQRFQGKITLTRDTSTTTVYMELSSLGSEDTAVYYCARDYMIGYVVFDYWGQGTMVTVSS
In the case of B17, the EC50 in the assay with T4 (Tn-MUC1) is 0.097 µg/mL; in the assay with T9 (Tn-MUC1), 0.102 µg/mL; with T11 (Tn-MUC1), 0.143 µg/mL; with T8 (Tn-MUC1) it was 0.142 µg/mL.

B18: 110 (antibody, V domains shown)
VH: B17 VH with V11M, Q35H, R63K, K67R, I68V, G87R, Y109F, M115L
In the case of B18, the half-maximal effective concentration (EC50) with T4 (Tn-MUC1) was determined as 0.127 µg/mL; with T9 (Tn-MUC1), 0.139 µg/mL; with T11 (Tn-MUC1), 0.164 µg/mL; with T8 (Tn-MUC1) it was 0.153 µg/mL.

B19: 114 (antibody, V domains shown)
VH: B17 VH with V11M, K19T, K67R, I68V, S75T, Y80N, S85G, G87R, Y109F, M115L
Take B19: the EC50 stood at 0.087 µg/mL with T4 (Tn-MUC1), 0.076 µg/mL with T9 (Tn-MUC1), 0.09 µg/mL with T11 (Tn-MUC1) and 0.085 µg/mL with T8 (Tn-MUC1).

B20: 53 (antibody, V domains shown)
VH: QVQLVQSGAEVKKPGASMTVSCKTSGYTFISYYIHWLRQAPGQGLEWLGVINPFGGATNYAQKFQGRVTMTRDTSTITVYMELSSLRSEDTAVYYCARDAMGGDSHFDFWGQGTLVTVSS
Regarding B20, the concentration for a half-maximal effect (EC50) was 0.112 µg/mL with T4 (Tn-MUC1), 0.126 µg/mL with T9 (Tn-MUC1), 0.131 µg/mL with T11 (Tn-MUC1) and 0.122 µg/mL with T8 (Tn-MUC1).

B21: 41 (antibody, V domains shown)
VH: B20 VH with K13E, V20L, Y32N, F109Y
Take B21: the EC50 in the assay with T4 (Tn-MUC1) is 0.1 µg/mL; with T9 (Tn-MUC1) it was 0.113 µg/mL; with T11 (Tn-MUC1) it was 0.134 µg/mL; with T8 (Tn-MUC1), 0.114 µg/mL.

B22: 98 (antibody, V domains shown)
VH: QVQLVQSGAEVKKPGASVKVSCKASGYTFTSYYIQWLRQAPGQGLEWMGVINPTGGATNYAQKFQGRVTMTRETSTSMVHMELSSLRSEDTAVYYCARDYMRGYVVFDYWGQGTLVTVSS
With B22, the EC50 in the assay with T4 (Tn-MUC1) came to 0.116 µg/mL; with T9 (Tn-MUC1), 0.102 µg/mL; with T11 (Tn-MUC1), 0.395 µg/mL; with T8 (Tn-MUC1), 0.263 µg/mL.

B23: 49 (antibody, V domains shown)
VH: QVQLVESGAEVKKPGASVKVSCKASGYTFTRYYLHWVRQAPGQGLEWMGVINPYGGATNYAQKFQGRVTLTRDTSTSTVYMELNSLRSEDTAVYFCARDAMEGNSYFDHWGPGTLVTVSS
Consider B23, for which the EC50 with T4 (Tn-MUC1) was 0.102 µg/mL; in the assay with T9 (Tn-MUC1), 0.12 µg/mL; in the assay with T11 (Tn-MUC1), 0.132 µg/mL; in the assay with T8 (Tn-MUC1) it was 0.124 µg/mL.
